Publication PMC6473055, “ALCAM Mediates DC Migration Through Afferent Lymphatics and Promotes Allospecific Immune Reactions” (Frontiers in Immunology, 2019)

Target: T1, murine CD166(1-527)-His (mouse, UniProt Q61490 28-527)
T1 construct: signal peptide in the construct; ALCAM (CD166), mouse, residues 1-527 as printed; also called murine ALCAM; source: bought: Sino Biological, purified
T1 sequence (looked up): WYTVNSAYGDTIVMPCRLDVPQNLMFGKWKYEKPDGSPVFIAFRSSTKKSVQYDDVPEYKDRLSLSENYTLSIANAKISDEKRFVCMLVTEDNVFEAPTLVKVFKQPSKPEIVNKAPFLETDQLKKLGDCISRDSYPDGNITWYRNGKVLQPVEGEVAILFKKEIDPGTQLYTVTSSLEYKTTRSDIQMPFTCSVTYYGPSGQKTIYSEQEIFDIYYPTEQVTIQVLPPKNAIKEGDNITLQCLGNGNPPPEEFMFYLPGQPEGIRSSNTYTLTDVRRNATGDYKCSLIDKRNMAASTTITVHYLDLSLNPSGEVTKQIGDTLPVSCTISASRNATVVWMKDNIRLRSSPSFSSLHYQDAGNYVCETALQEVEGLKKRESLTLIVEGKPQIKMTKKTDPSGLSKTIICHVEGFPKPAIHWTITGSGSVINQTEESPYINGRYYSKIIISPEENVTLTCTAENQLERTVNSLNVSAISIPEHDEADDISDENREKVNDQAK
Test: ELISA; competition ELISA: plates coated overnight at 4°C with murine CD166(1-527)-His (5 μg/ml), blocked with PBS with 2% milk powder; 2 h at RT with a fixed amount of murine CD6-Fc (1 μg/ml) and I/F8-Fc or KSF-Fc in PBS (4 to 0.25 μg/ml); bound CD6-Fc detected with HRP-coupled anti-human IgG
Settings: both partners purified

B1: murine CD6-Fc (Fc fusion, mouse, UniProt Q61003 17-398, looked up)
chain: GLPSPAPSGQHKNGTIPNMTLDLEERLGIRLVNGSSRCSGSVKVLLESWEPVCAAHWNRAATEAVCKALNCGDSGKVTYLMPPTSELPPGATSGNTSSAGNTTWARAPTERCRGANWQFCKVQDQECSSDRRLVWVTCAENQAVRLVDGSSRCAGRVEMLEHGEWGTVCDDTWDLQDAHVVCKQLKCGWAVKALAGLHFTPGQGPIHRDQVNCSGTEAYLWDCPGRPGDQYCGHKEDAGVVCSEHQSWRLTGGIDSCEGQVEVYFRGVWSTVCDSEWYPSEAKVLCRSLGCGSAVARPRGLPHSLDGRMYYSCKGQEPALSTCSWRFNNSNLCSQSRAARVVCSGSQRHLNLSTSEVPSRVPVTIESSVPVSVKDKDSQGLT
notes: CD6, mouse; source: bought: R&D Systems
B1: binds.
